Assay results as given in PMC4569737, “Involvement of a eukaryotic-like ubiquitin-related modifier in the proteasome pathway of the archaeon Sulfolobus acidocaldarius” (Nature Communications, 2015).

Experiments:
[1] = biological target: the molecule itself; assay: SEC-MALS; 100 μl protein complex at 2 mg/ml, Superdex 200 10/300 Increase GL, 20 mM Tris (pH 8.0), 300 mM NaCl, 25 °C
[2] = biological target: the molecule itself; assay: negative-stain transmission electron microscopy; purified 20S complexes at 0.035 mg/ml on carbon-coated grids, 2% uranyl acetate

B1: Saci0656 PAN (proteasome-activating nucleotidase) regulatory ATPase of S. acidocaldarius (enzyme, UniProt F2Z6H9 1-396, looked up)
chain: MFGDVDSYKNRENNNNYDETLVKLLEEKIEALTKEIDKLRQDLNWYKTELEKLLAPPYIEATILDILPDGKVIVRSSSGPNLVVNVATNVDVSKLKPGMSVALSQRGSTIIDILPNREDIIVKSFELIEKPNIHYSDIGGLEDQINELREVVELPLKNKKLFEELGIEPPKGVLLYGPPGTGKTMLAKAVAAESNATFIHVVASEFAQKFVGEGARIVREVFELARKKAPSIIFIDELDAIAARRIDIGTSGEREIQRTLMQLLAEIDGFKALDNVKIIAATNRIDILDPAILRPGRFDRLIEVPLPDEKGRKEIFKIYLQRMRINENDKLNYDLIAQLTDGFSGADIKNVCTEAGYMAIREGRESIKFQDIIRAIDKIKKKNLRKAINTRTEKYL
notes: ORF amplified from genomic DNA; also called PAN ATPase; PAN regulatory ATPase; source: E. coli Rosetta (DE3) pLysS, purified (details in the Supplementary Methods)
stoichiometry N [1]: 6

B2: Saci0613 20S proteasome α-subunit, untagged (natural protein, S. acidocaldarius, UniProt Q4JB24 1-242, looked up)
chain: MALGPAAMGYDRAITIFSPDGSLYQVDYAFEAVKRGWTTLGVKTKSGVVLLAEKRKATQLLDVDGIEKIFMLDDHVGCTFAGLASDGRILIDYARSQALQHRLIYDEPISIEYLTKVISDVKQAYTQHGGVRPFGVALIVGGIDKGKQPKLLMTEPSGQFMPYYAVAIGQGGYTATEYLEKNYKEDLDIQSTILLALRALMATLKPGEKLNYSSVEIGYADVDSGTFKKLTTEERSDLLQKI
notes: 20S proteasome α-subunit, S. acidocaldarius DSM639, Saci0613; also called Saci0613 α; 0613 α-subunit; source: E. coli Rosetta (DE3) pLysS, co-expressed with β-subunit(s); in heat-clarified lysate, and purified as part of the complex (Ni-NTA IMAC, size exclusion chromatography)
binding result [2]: binds

B3: Saci0662ΔN, N-terminally truncated Saci0662 β-subunit (without the pro-peptide), His-tagged (domain or fragment, S. acidocaldarius, UniProt Q4JAY3 7-195, looked up)
chain: TAIGIKTKDGVVLAAERRLSYGDFVLSKSARKVFKLGRFGIAGAGIVGDIQTLTRIMNVEIKYYEMYNSRKISARAAAKLLSVILYQNKVLPYISELLFGGVDEDGPKLFILDPIGSLIEDSYAAVGSGARVAIGVLEAEYNESLTSEAAKELAIKSMKSAVERDVMSGDGIDILIINKNNIYEDFIKI
notes: source: E. coli Rosetta (DE3) pLysS, co-expressed with Saci0613 (with or without Saci0909ΔN); in heat-clarified lysate, and purified as part of the complex (Ni-NTA IMAC, size exclusion chromatography); not shown: His tag, C-terminal, kept
binding result [2]: binds
